This assay has as its system formaldehyde. The assay can be described thus: Cell-free prototyping of the α-reduction FORCE pathway with E. coli cell extracts. The assay is classed as biochemical. Particulars: 50 mM formaldehyde. The source says: A cell-free metabolic engineering approach was used to further prototype the FORCE pathways for product synthesis. […] As shown in FIG. 2 (in the formyl-CoA elongation panel), outside of the direct generation of 2-hydroxycarboxylates (e.g. glycolate) via thioester cleavage of the 2-hydroxyacyl-CoA generated by HACL, other C2 products, (including the aldose or aldehyde elongation pathways) require reduction of this 2-hydroxyacyl-CoA (glycolyl-CoA in the case of formaldehyde and formyl-CoA ligation). Listeria monocytogenes ACR (LmACR) are also able to act upon glycolaldehyde. […] With the inclusion of the previously identified HACL from Rhodospirillales bacterium URHD0017 (RuHACL), glycolate was observed.
Upon further addition of E. coli cell extract expressing diol dehydratase (DDR) from Klebsiella oxytoca, along with coenzyme B12, ethanol was detected (1.90±0.03 mM at one hour: FIG. 5b), likely due to the reduction of acetaldehyde by endogenous oxidoreductases, along with a corresponding decrease in ethylene glycol. […]
Enzyme expression and cell extract preparation was performed as described previously. […] Samples were centrifuged at 20817×g for 15 minutes and the supernatant analyzed by HPLC as described previously.

B1: E. coli FucO: E. coli 1,2-diol oxidoreductase, added as cell extract (protein, UniProt P0A9S1 1-382, looked up)
Lactaldehyde reductase: MANRMILNETAWFGRGAVGALTDEVKRRGYQKALIVTDKTLVQCGVVAKVTDKMDAAGLAWAIYDGVVPNPTITVVKEGLGVFQNSGADYLIAIGGGSPQDTCKAIGIISNNPEFADVRSLEGLSPTNKPSVPILAIPTTAGTAAEVTINYVITDEEKRRKFVCVDPHDIPQVAFIDADMMDGMPPALKAATGVDALTHAIEGYITRGAWALTDALHIKAIEIIAGALRGSVAGDKDAGEEMALGQYVAGMGFSNVGLGLVHGMAHPLGAFYNTPHGVANAILLPHVMRYNADFTGEKYRDIARVMGVKVEGMSLEEARNAAVEAVFALNRDVGIPPHLRDVGVRKEDIPALAQAALDDVCTGGNPREATLEDIVELYHTAW
modifications: added as cell extract
notes: E. coli 1,2-diol oxidoreductase, added as cell extract
For the molecule B1, under “extract added to LmACR and RuHACL extracts”, the ethylene glycol synthesis was 2.73 ± 0.03 mM. In addition, the “increase in ethylene glycol” value (vs without the added extract) is on record as 2 fold.

These data come from patent US20260078416A1, “ORTHOGONAL METABOLIC FRAMEWORK FOR ONE-CARBON UTILIZATION” (Mojia Biotech Pte. Ltd., priority 2021, published 2026).
